Measurements from patent publication US20240182530A1.

Columns and labels:
[1] = target: Gre2p-SpyTag003 Loop B (Saccharomyces cerevisiae) (UniProt Q12068); experiment: isopeptide bond formation, 5 µM each, PBS pH 7.5, 25 °C, SDS-PAGE densitometry
sfGFP-SpyTag003 Loop A [2] = experiment: as above
sfGFP-SpyTag003 Loop A [3] = experiment: isopeptide bond formation, SDS-PAGE densitometry; reference SpyTag003 as a terminal fusion with SpyCatcher003

Sequence of UniProt Q12068 (Q12068 other isoform, or with tags, fused parts or gaps): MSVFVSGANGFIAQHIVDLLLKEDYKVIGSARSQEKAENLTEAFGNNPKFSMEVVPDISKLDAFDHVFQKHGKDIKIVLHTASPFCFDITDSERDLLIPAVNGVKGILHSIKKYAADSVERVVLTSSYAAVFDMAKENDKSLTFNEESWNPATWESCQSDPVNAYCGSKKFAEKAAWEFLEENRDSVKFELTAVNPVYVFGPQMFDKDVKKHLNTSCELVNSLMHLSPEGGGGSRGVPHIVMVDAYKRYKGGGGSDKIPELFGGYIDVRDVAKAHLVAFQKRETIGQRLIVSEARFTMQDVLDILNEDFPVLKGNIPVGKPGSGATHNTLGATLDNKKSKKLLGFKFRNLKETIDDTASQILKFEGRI

Q: How did the second-order rate constant [1] turn out when SpyCatcher003 (designed binder) was run?
A: 93 M⁻¹ s⁻¹

Q: What about the second-order rate constant (sfGFP-SpyTag003 Loop A [2]) of the same substance?
A: 87 M⁻¹ s⁻¹

Q: And the fold slower than SpyTag003 as a terminal fusion (sfGFP-SpyTag003 Loop A [3])?
A: 6000 fold
